Test results: patent US7230094B2, “Neutral sphingomyelinase antisense ribozyme and uses thereof” (priority 2001, dated 2007)

Tested on: MG-63 cells
Experiment: Apoptosis by DAPI staining and counting of apoptotic cells
Type: cell-based, human
Details: for Apoptosis in response to TNF-α and Fas-L: cells with ribozyme-induced deficiency of N-SMase, TNF-α 20 ng/ml, Fas-L 1 ng/ml, 24 hr
Protocol: FIG. 6 depicts a quantitative analysis of the effects of TNF-α, C2-Ceramide and Fas-ligand on apoptosis in mutant (CC) and WT (MG-63) cells, as well as wild type/mock transfected cells. Cells were grown on glass cover slips and incubated for 24 hours with TNF-α (20 ng/ml), cell-permeable ceramide (C2-Ceramide) (10 ng/ml) or Fas-L (1 ng/ml). Cells were fixed and stained with DAPI and photographed at 50× magnification. Apoptotic cells were counted using a hemocytometer. The basal levels of apoptotic cells were: MG-63 (3%); L-3 (3%); and CC (2.8%). Errors bars indicate ±S.D. (N=2).
WT (MG-63), LacZ (L-3) and mutant (CC) cells were grown on glass cover slips and incubated for 24 hr with TNF-α (20 ng/ml), cell-permeable ceramide (C2-ceramide) (10 ng/ml) or Fas-L (1 ng/ml). Cells were fixed and stained with DAPI stain and photographed (50×). Apoptotic cells were counted using a hemocytometer and compared to total cell counts per field. Basal levels of apoptosis were 3% untransfected, 3% control transfection, and 2.8% ribozyme transfection.

B1: N-SMase ribozyme: U1 snRNA-derived hammerhead antisense ribozyme targeting N-SMase mRNA, expressed from vector pNSMRz; stably transfected MG63 clones CC and C-B (nucleic acid, listed as Homo sapiens)
chain: AUACUUACCUGGCAGGGGAGAUACCAUGAUCACGAAGGUGGUUUUCCCAGGGCGAGGCUUAUCCAUUGGCCUCCGGAUGUGCUGACCCCUGCGAUUUCCCCAAAUGUGGGAAACUCGACUGCAGAAUAUGUCAUCAUAUUGCCUGAUGAGUCCGUGAGGACGAAACCUCUUCACAUGAAAAAGUGGGGCUGCGUUCGCGCUUCCCCG
CC (ribozyme transfection), DAPI, 3% untransfected, 3% control transfection
  Basal level of apoptotic cells: 2.8%
  Apoptosis in response to TNF-α and Fas-L: marked hyporesponsiveness
Listed as antisense ribozyme
  Apoptosis in response to TNF-α and Fas-L: not altered
Listed as ribozyme
  Apoptosis in response to TNF-α and Fas-L: marked resistance to apoptosis
